Tests used:
[1] = target: single domain antibody against GFP with a six histidine-tag at the C-terminal (GFP-Nb) (llama); test: SPR; BIAcore X100, 25°C; GFP-Nb (~3 nM, ~50 R.U.) captured by its His tag on Ni:NTA chip, GFP as analyte (0.1-1000 nM), 30 μl/min; 10 mM HEPES pH 7.4, 0.15 M NaCl, 50 μM EDTA, 0.05% tween 20; kon and koff from 1:1 fit, KD from end-point response (Hill equation)
[2] = target: single domain antibody against GFP with a six histidine-tag at the C-terminal (GFP-Nb) (llama); test: SPR; BIAcore X100, 25°C; GFP-Nb captured by its His tag on anti-polyhistidine antibody amine-coupled to a CM5 chip, GFP as analyte, 30 μl/min; 10 mM HEPES pH 7.4, 0.15 M NaCl, 0.05% tween 20; kon and koff from 1:1 fit, KD from end-point response (Hill equation)
[3] = target: single domain antibody against GFP with a six histidine-tag at the C-terminal (GFP-Nb) (llama); test: SPR; BIAcore X100, 25°C; GFP-Nb amine-coupled to a CM5 chip (~2500 R.U.), GFP as analyte (0.2-1000 nM; 10 nM with dissociation followed for 36000 s for koff); 10 mM HEPES pH 7.4, 0.15 M NaCl, 0.05% tween 20; KD from end-point response (Hill coefficient 1)
[4] = target: single domain antibody against GFP with a six histidine-tag at the C-terminal (GFP-Nb) (llama); test: SPR; GFP-Nb diluted in NTA running buffer of pH 4.0-10.5, then captured on Ni:NTA chip; 30 nM GFP as analyte; constants given for the whole pH range
[5] = target: single domain antibody against GFP with a six histidine-tag at the C-terminal (GFP-Nb) (llama); test: SPR; GFP-Nb captured on Ni:NTA chip; 30 nM GFP diluted in NTA running buffer with different NaCl concentrations (up to 1 M) as analyte; constants given for all NaCl concentrations
[6] = target: single domain antibody against GFP with a six histidine-tag at the C-terminal (GFP-Nb) (llama); test: SPR; GFP-Nb heated for 30 min at 25-100°C and cooled 30 min at room temperature, then captured on Ni:NTA chip; 30 nM GFP as analyte; NTA running buffer, 25°C; constants given for the whole temperature range

Sequence of single domain antibody against GFP with a six histidine-tag at the C-terminal (GFP-Nb) (llama) (heavy, as listed by the source): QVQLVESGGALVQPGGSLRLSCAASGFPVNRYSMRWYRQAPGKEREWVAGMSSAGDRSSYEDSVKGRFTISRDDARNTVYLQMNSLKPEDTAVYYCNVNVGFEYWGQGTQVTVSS

Green Fluorescent Protein (GFP) (from UniProt P42212 1-238) (natural protein)
Kd [1]: 6.1 nM
koff [1]: 0.00071 s⁻¹
kon [1]: 1.1e+06 M⁻¹ s⁻¹
Kd [2]: 5.5 nM
koff [2]: 0.00029 s⁻¹
kon [2]: 1e+06 M⁻¹ s⁻¹
Kd [3]: 9.6 nM
koff [3]: 1.4e-05 s⁻¹
koff [4]: 0.00064 s⁻¹
kon [4]: 1.4e+06 M⁻¹ s⁻¹
koff [5]: 0.00063 s⁻¹
kon [5]: 1.5e+06 M⁻¹ s⁻¹
koff [6]: 0.00063 s⁻¹
kon [6]: 1.5e+06 M⁻¹ s⁻¹
